Data published in the Human Domainome abundance scans (Beltran et al. 2025).
± gives the uncertainty stated by the source.

B1: Serine/threonine-protein kinase A-Raf, residues 21 to 89; numbered along this chain, P10398 (parent)
chain: VKVYLPNKQRTVVTVRDGMSVYDSLDKALKVRGLNQDCCVVYRLIKGRKTVTAWDTAIAPLDGEELIVE
B2: POU domain, class 2, transcription factor 1, residues 285 to 354; numbered along this chain, P14859 (parent)
chain: LEELEQFAKTFKQRRIKLGFTQGDVGLAMGKLYGNDFSQTTISRFEALNLSFKNMCKLKPLLEKWLNDAE

Variants of: B1
Assay: abundance fitness (aPCA) (normalised: wild type 0, dead -1); higher = more abundant; growth selection in yeast, the domain comes from the species named
Conditions: Homo sapiens

Variant	abundance fitness
G18F	-0.651 ± 0.073
K30G	-0.426 ± 0.053
V1M	-0.141 ± 0.1
V1E	-0.833 ± 0.22
A53L	-0.455 ± 0.075
D17I	-0.221 ± 0.088
S24V	0.031 ± 0.05
S24E	-0.652 ± 0.11
S24R	-0.914 ± 0.091
D26S	-0.113 ± 0.069
D26E	0.04 ± 0.093
N35I	-0.682 ± 0.19
N35W	-0.866 ± 0.15
D37M	-0.499 ± 0.098
G47F	-0.998 ± 0.25
K46H	-0.259 ± 0.11
E64W	-0.215 ± 0.12
V40M	-0.058 ± 0.098
G33P	-0.953 ± 0.24
T11P	-0.979 ± 0.19
T11E	-0.108 ± 0.072
T11K	-0.371 ± 0.079

Variant	abundance fitness
S20E	-0.913 ± 0.25
S20M	-0.832 ± 0.3
S20G	-0.94 ± 0.13
R43W	-0.911 ± 0.38
C39F	-0.466 ± 0.13
T52I	0.141 ± 0.17
T52L	0.052 ± 0.047
D23N	-0.294 ± 0.19
D23P	-0.931 ± 0.23
V31E	0.066 ± 0.067
V31W	-0.305 ± 0.072
V31I	-0.076 ± 0.07
Q9A	-0.198 ± 0.047
P60L	0.001 ± 0.045
L34R	-1 ± 0.12
N7A	-0.44 ± 0.041
R10Q	0.036 ± 0.076
R10W	0.067 ± 0.048
R10A	-0.15 ± 0.059
V41A	-0.274 ± 0.061
V15H	-0.122 ± 0.096
V15S	-0.179 ± 0.053

Variant	abundance fitness
R16I	-0.073 ± 0.1
M19D	-0.09 ± 0.14
L44T	-0.169 ± 0.082
L44G	-0.767 ± 0.09
K8W	-0.355 ± 0.054
Q36T	-0.162 ± 0.069
E65I	-0.088 ± 0.45
E65W	-0.515 ± 0.18
Y4D	-0.601 ± 0.11
D55P	-0.852 ± 0.099
D55Y	-0.648 ± 0.15
V12H	-0.115 ± 0.14
E69P	-0.693 ± 0.17
E69V	-0.43 ± 0.098
E69K	-0.6 ± 0.4
E69Q	-0.6 ± 0.17
R48P	-0.474 ± 0.16
V68A	-0.391 ± 0.41
Y42M	-0.684 ± 0.13
R32L	0.046 ± 0.07
R32F	-0.009 ± 0.26

Variants of: B2
Assay: as above
Conditions: Homo sapiens

Variant	abundance fitness
N54H	0.004 ± 0.09
N54T	-0.008 ± 0.026
N54C	0.011 ± 0.034
N54A	0.019 ± 0.02
N54V	0.006 ± 0.023
N54K	0.009 ± 0.043
N54I	0.054 ± 0.061
N54M	-0.005 ± 0.039
N54S	0.009 ± 0.022
N54D	0.08 ± 0.058
N54Y	-0.01 ± 0.065
N54P	-0.135 ± 0.028
N54L	-0.005 ± 0.022
N54G	-0.018 ± 0.022
L58Y	-0.115 ± 0.057
L58A	-0.062 ± 0.021
L58N	-0.396 ± 0.065
L58M	0.014 ± 0.062
L58F	-0.026 ± 0.034
L58I	-0.027 ± 0.055
L58T	-0.07 ± 0.026
L58P	-0.802 ± 0.03
L58Q	-0.199 ± 0.04
L58K	-0.202 ± 0.063
L58S	-0.178 ± 0.025
L58H	-0.046 ± 0.038

Variant	abundance fitness
L58W	0.002 ± 0.035
L58G	-0.632 ± 0.028
L58C	-0.019 ± 0.029
L58E	-0.526 ± 0.06
L58V	0.005 ± 0.02
L58D	-0.474 ± 0.052
E70V	-0.083 ± 0.087
E70D	-0.029 ± 0.031
E70I	-0.048 ± 0.16
E70R	-0.36 ± 0.32
E70K	0.011 ± 0.12
E70S	0.076 ± 0.22
E70W	0.071 ± 0.15
E70G	-0.13 ± 0.26
E70P	-0.349 ± 0.23
W65G	-0.555 ± 0.033
W65L	-0.305 ± 0.07
W65I	-0.633 ± 0.44
W65H	-0.5 ± 0.18
W65Q	-0.594 ± 0.046
W65T	-0.294 ± 0.045
W65R	-0.753 ± 0.035
W65Y	-0.275 ± 0.25
W65F	0.009 ± 0.18
W65M	-0.22 ± 0.073
W65C	-0.35 ± 0.17

Variant	abundance fitness
W65V	-0.262 ± 0.073
W65P	-0.693 ± 0.086
W65A	-0.432 ± 0.043
W65D	-0.968 ± 0.17
W65K	-0.961 ± 0.11
W65E	-0.825 ± 0.081
W65S	-0.728 ± 0.062
W65N	-1.05 ± 0.31
K57Y	0.031 ± 0.028
K57P	-0.451 ± 0.022
K57H	-0.069 ± 0.035
K57M	-0.063 ± 0.037
K57F	-0.027 ± 0.033
K57E	-0.004 ± 0.068
K57L	-0.005 ± 0.02
K57Q	-0.018 ± 0.032
K57S	-0.006 ± 0.02
K57W	-0.042 ± 0.032
K57A	-0.031 ± 0.03
K57V	-0.024 ± 0.037
K57D	0.04 ± 0.056
K57I	-0.058 ± 0.057
K57G	-0.082 ± 0.05
K57R	-0.047 ± 0.026
K57C	0.005 ± 0.035
M55R	-0.48 ± 0.023

Variant	abundance fitness
M55S	-0.1 ± 0.024
M55D	-0.381 ± 0.073
M55F	-0.107 ± 0.04
M55P	-0.991 ± 0.055
M55E	-0.488 ± 0.051
M55L	-0.013 ± 0.025
M55Y	-0.153 ± 0.027
M55G	-0.068 ± 0.043
M55I	-0.086 ± 0.05
M55C	-0.12 ± 0.029
M55K	-0.51 ± 0.038
M55Q	-0.034 ± 0.028
M55W	-0.271 ± 0.031
M55V	-0.167 ± 0.041
M55H	-0.247 ± 0.033
D68G	-0.011 ± 0.019
D68S	0.026 ± 0.029
D68H	-0.012 ± 0.05
D68M	-0.034 ± 0.022
D68P	-0.419 ± 0.035
D68K	-0.018 ± 0.016
D68Y	-0.063 ± 0.033
D68V	-0.047 ± 0.027
D68W	-0.086 ± 0.028
